Patent US20260258155A1 (TRIVENI BIO, published 2026)
Changes are numbered by the printed parent chain.

B1: KLK5-L1-Ab3 (antibody, V domains shown)
VH: EVQLVESGGGLVQPGGSLRLSCAASGFTFEHYSMNWVRQAPGKGLEWVSYISSSSSYIDYADSVKGRFTISRDNAKNSLYLQMNSLRAEDTAVYYCARDLTSMQSRDYYYYGMDVWGQGTTVTVSS
VL: DIQMTQSPSSVSASVGDRVTITCRASQGISSWLAWYQQKPGKAPKLLIYAASSLQSGVPSRFSGSGSGTDFTLTISSLQPEDFATYYCQQVPIFPYTFGGGTKVEIK
B2: KLK5-L1-Ab2 (antibody, V domains shown)
VH: B1 VH with E30G, H31S, S33A, Y57F
VL: B1 VL
B3: KLK5-L1-Ab4 (antibody, V domains shown)
VH: B1 VH with E30N, H31D
VL: B1 VL
B4: KLK5-L2-Ab4 (antibody, V domains shown)
VH: QLQLQESGPGLVKPSETLSLTCTVSGGSIPSSSYYWSWIRQPPGKGLEWIGNIYYSGSTYYNPSLKSRVTISVDTSKNQFSLKLSSVTAADTAVYYCARGEYDRSYYYWGLDVWGQGTTVTVSS
VL: not shown
B5: KLK5-L2-Ab3 (antibody, V domains shown)
VH: B4 VH with Y108F, L111M
VL: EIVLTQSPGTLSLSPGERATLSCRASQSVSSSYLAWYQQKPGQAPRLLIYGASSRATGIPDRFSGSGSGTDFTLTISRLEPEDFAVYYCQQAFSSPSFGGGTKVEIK
B6: KLK5-L1-Ab5 (antibody, V domains shown)
VH: B1 VH with S102D, M103R
VL: B1 VL
notes: also called KLK-L1-Ab5
B7: KLK5-L3-Ab6 (antibody, V domains shown)
VH: QVQLVQSGAEVKKPGSSVKVSCKASGGTFSGYVISWVRQAPGQGLEWMGGIFPISGYAVYAQKFQGRVTITADESTSTAYMELSSLRSEDTAVYYCARASASGYYDRSYYYYGMDVWGQGTTVTVSS
VL: B1 VL with P92S, I93S, Y96Q
B8: KLK5-L3-Ab7 (antibody, V domains shown)
VH: B7 VH with K12R, G31N, V33H, I54T, S55F, Y57T, V59N, A99G, Y112D
VL: B1 VL with P92I, I93S
B9: KLK7-L1-Ab4 (antibody, V domains shown)
VH: QVQLVQSGAEVKKPGASVKVSCKASGYTFTSEGIHWVRQAPGQGLEWMGSISASSGDTNYAQKLQGRVTMTTDTSTSTAYMELRSLRSDDTAVYYCARAAGYGARHWYFDLWGQGTMVTVSS
VL: DIQMTQSPSSLSASVGDRVTITCRASQSISSYLNWYQQKPGKAPKLLIYGASSLQSGVPSRFSGSGSGTDFTLTISSLQPEDFATYYCDQFYSTPPITFGGGTKVEIK
B10: KLK7-L1-Ab5 (antibody, V domains shown)
VH: B9 VH
VL: B9 VL with F91W
B11: KLK7-L1-Ab2 (antibody, V domains shown)
VH: B9 VH with T30G, S31P, E32Y, H35S, S50W, S54Y, H106W
VL: B9 VL with Q90G, F91S
B12: KLK7-L1-Ab3 (antibody, V domains shown)
VH: B9 VH with K63E
VL: B9 VL
B13: KLK7-L2-Ab3 (antibody, V domains shown)
VH: QVQLQESGPGLVKPSQTLSLTCTVSGGSISSGGYSWNWIRQHPGKGLEWIGSIYRSGSTYYNPSLKSRVTISVDTSKNQFSLKLSSVTAADTAVYYCARAKALTTHRYVDYWGQGTLVTVSS
VL: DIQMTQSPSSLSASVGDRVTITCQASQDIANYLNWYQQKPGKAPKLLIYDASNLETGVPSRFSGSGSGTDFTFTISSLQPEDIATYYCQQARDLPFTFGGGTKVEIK
B14: KLK7-L3-Ab2 (antibody, V domains shown)
VH: QVQLVQSGAEVKKPGSSVKVSCKASGGTFNNYAISWVRQAPGQGLEWMGAIIPIFGVANYAQKFQGRVTITADESTSTAYMELSSLRSEDTAVYYCARGAPNYYGAQSSRGIAFDIWGQGTMVTVSS
VL: B1 VL with Q89V, V91A, P92N, I93A, T97K
B15: KLK7-L3-Ab3 (antibody, V domains shown)
VH: B14 VH with N30S, N31S, Y32H, S35T, A50G, V57F, A106S, Q107A
VL: B1 VL with Q89V, V91A, P92N, I93A, T97S
B16: KLK7-L4-Ab2 (antibody, V domains shown)
VH: QLQLQESGPGLVKPSETLSLTCTVSGGSISSSPYNWVWIRQPPGKGLEWIGSILHSGSTYYNPSLKSRVTISVDTSKNQFSLKLSSVTAADTAVYYCARGVPTYWGAASHYYYYMDVWGKGTTVTVSS
VL: DIQMTQSPSTLSASVGDRVTITCRASQSISSWLAWYQQKPGKAPKLLIYKASSLESGVPSRFSGSGSGTEFTLTISSLQPDDFATYYCEQYGSESPLTFGGGTKVEIK
B17: KLK7-L1-Ab1 (antibody, V domains shown)
VH: B9 VH with A16S, Y27G, T30S, S31N, E32Y, G33A, H35S, S50W, S54Y
VL: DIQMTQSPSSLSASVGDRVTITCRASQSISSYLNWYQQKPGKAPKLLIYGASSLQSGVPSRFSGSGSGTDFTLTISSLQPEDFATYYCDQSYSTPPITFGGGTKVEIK
B18: KLK7-L1-Ab7 (antibody, V domains shown)
VH: B9 VH with A99G, H106D
VL: B9 VL with F91R
B19: KLK7-L1-Ab6 (antibody, V domains shown)
VH: B9 VH with H106S
VL: B9 VL
B20: KLK7-L5-Ab1 (antibody, V domains shown)
VH: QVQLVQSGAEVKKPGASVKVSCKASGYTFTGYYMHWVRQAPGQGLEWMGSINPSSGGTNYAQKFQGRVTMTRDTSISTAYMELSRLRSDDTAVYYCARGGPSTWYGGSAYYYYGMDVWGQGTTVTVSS
VL: EIVLTQSPGTLSLSPGERATLSCRASQSVSSDYLAWYQQKPGQAPRLLIYGASSRATGIPDRFSGSGSGTDFTLTISRLEPEDFAVYYCQQYANLWTFGGGTKVEIK
B21: KLK7-L5-Ab2 (antibody, V domains shown)
VH: QVQLVQSGAEVKKPGASVKVSCKASGYTFAGYDMHWVRQAPGQGLEWMGSINPTSGRTNYAQKFQGRVTMTRDTSISTAYMELSRLRSDDTAVYYCARGGPSTWYGGSAYTYYGADVWGQGTTVTVSS
VL: B20 VL with N94P
B22: KLK7-L2-Ab2 (antibody, V domains shown)
VH: B13 VH with S35Y, N37H, S52Y, S58Y, A102Q, V109F
VL: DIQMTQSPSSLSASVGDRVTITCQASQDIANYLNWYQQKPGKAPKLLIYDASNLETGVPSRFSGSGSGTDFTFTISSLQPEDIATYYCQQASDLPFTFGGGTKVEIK
B23: KLK7-L2-Ab1 (antibody, V domains shown)
VH: B13 VH with S35Y, N37S, R55Y, A102Q, V109F
VL: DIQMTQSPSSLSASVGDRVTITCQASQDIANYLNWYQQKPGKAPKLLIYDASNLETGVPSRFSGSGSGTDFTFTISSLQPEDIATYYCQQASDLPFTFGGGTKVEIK
B24: KLK7-L2-Ab4 (antibody, V domains shown)
VH: B13 VH with A102Q, T105L, H106T, V109F
VL: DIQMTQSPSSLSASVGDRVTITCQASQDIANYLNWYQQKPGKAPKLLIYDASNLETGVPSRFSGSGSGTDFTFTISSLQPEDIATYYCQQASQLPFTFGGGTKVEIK
B25: KLK7-L2-Ab5 (antibody, V domains shown)
VH: B13 VH with S35Y, N37H, S52Y, S58Y, A102Q, H106S, V109F
VL: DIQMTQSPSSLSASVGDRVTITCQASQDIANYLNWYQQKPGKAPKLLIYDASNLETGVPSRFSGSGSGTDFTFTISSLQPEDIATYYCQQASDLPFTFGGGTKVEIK

Target: human KLK5 (hKLK5), active form (human, UniProt Q9Y337 67-293)
Test: cell-based or functional assay

| hKLK5 IC50 (protease inhibition) | hKLK5 IC90 (protease inhibition) | Binder |
| --- | --- | --- |
| 1.71 nM | 15 nM | B1 |
| 2.26 nM | 13.3 nM | B2 |
| 2.49 nM | 10.6 nM | B3 |
| 2.04 nM | 9.86 nM | B4 |
| 2.26 nM | 10.2 nM | B5 |

Target: mouse KLK5 (mKLK5) (mouse)
Test: cell-based or functional assay

| mKLK5 IC50 (protease inhibition) | mKLK5 IC90 (protease inhibition) | Binder |
| --- | --- | --- |
| 4.97 nM | 40.1 nM | B1 |
| 4.1 nM | 25 nM | B6 |
| 4.43 nM | 34.6 nM | B2 |
| 12.7 nM | 80.8 nM | B7 |
| 9.26 nM | 81.2 nM | B3 |
| 2.17 nM | 10.7 nM | B8 |
| 1.68 nM | 15.6 nM | B4 |
| 1.82 nM | 29.5 nM | B5 |

Target: human KLK7 (hKLK7), active form (human, UniProt P49862 30-253)
Sequence (P49862 30-253): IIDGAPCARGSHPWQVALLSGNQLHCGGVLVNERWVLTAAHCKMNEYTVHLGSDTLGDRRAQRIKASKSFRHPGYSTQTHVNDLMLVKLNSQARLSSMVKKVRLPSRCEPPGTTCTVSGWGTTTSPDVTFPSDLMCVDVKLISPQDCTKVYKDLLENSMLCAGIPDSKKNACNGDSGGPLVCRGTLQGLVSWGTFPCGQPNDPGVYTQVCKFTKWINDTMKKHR
Test: cell-based or functional assay

| hKLK7 IC50 (protease inhibition) | hKLK7 IC90 (protease inhibition) | Binder |
| --- | --- | --- |
| 0.914 nM | 3.67 nM | B9 |
| 1.23 nM | 4.66 nM | B10 |
| 1.69 nM | 6.11 nM | B11 |
| 1.2 nM | 5.03 nM | B12 |
| 0.833 nM | 3.39 nM | B13 |
| 0.802 nM | 4.43 nM | B14 |
| 1.4 nM | 8.25 nM | B15 |
| 1.42 nM | 6.34 nM | B16 |

Target: T1, mouse KLK7 (mKLK7) (mouse, UniProt Q91VE3 26-249)
T1 sequence (Q91VE3 26-249 limits assumed): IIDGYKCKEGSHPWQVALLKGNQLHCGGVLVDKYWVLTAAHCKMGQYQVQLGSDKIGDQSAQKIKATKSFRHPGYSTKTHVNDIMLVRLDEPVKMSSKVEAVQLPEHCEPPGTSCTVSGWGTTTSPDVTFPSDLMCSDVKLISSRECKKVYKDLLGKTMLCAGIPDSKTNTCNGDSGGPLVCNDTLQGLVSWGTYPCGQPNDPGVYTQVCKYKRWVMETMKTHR
Test: cell-based or functional assay

| mKLK7 IC50 (protease inhibition) | mKLK7 IC90 (protease inhibition) | Binder |
| --- | --- | --- |
| 1.42 nM | 7.12 nM | B9 |
| 1.35 nM | 7.25 nM | B10 |
| 0.5 nM | 108 nM | B17 |
| 1.06 nM | 5.03 nM | B18 |
| 3.42 nM | 19.8 nM | B11 |
| 1.46 nM | 6.45 nM | B12 |
| 1.25 nM | 4.58 nM | B19 |
| 15 nM | 67.3 nM | B20 |
| 1.48 nM | 26.5 nM | B21 |
| 2.31 nM | 6.01 nM | B22 |
| 1.49 nM | 4.88 nM | B13 |
|  | 5.63 nM | B23 |
| 1.63 nM | 6.51 nM | B24 |
| 1.91 nM | 6.52 nM | B25 |
| 2.68 nM | 11.5 nM | B14 |
| 3.34 nM | 11.4 nM | B15 |
| 2.42 nM | 9.04 nM | B16 |

Target: T2, mouse KLK5 (mKLK5) (mouse)
T2 construct: Enzymatically active in the protease assay
Test: Biacore SPR, antibody captured on Protein A chip, single-cycle kinetics, 25 C
Protocol: (§1) All screening assays were performed at 25 C. The running buffer used was 20 mM HEPES, 300 mM NaCl, 0.01% Tween-20, pH 7.5. Antibodies (1 ug/mL) were captured on Fc2-4 of a Series S ProteinA Sensor Chip (Cytiva) flowing at 10 ul/mL for 30 s. Kinetics measurements were made in single-cycle kinetics mode with a series of 4-5 concentrations with top concentration of 25-100 nM and serial dilution 4-fold. Contact time was typically 300 s and dissociation time ranged from 1800-3600 s. Flow rate of 30 ul/mL was typically used. The sensor chip was regenerated with 10 mM glycine, pH 1.5 with a contact time of 30 s flowing at 50 ul/mL.

| Kd | Binder |
| --- | --- |
| 0.32 nM | B1 |
| 0.26 nM | B6 |
| 0.41 nM | B2 |
| 12 nM | B7 |
| 0.66 nM | B3 |
| 1.4 nM | B8 |
| 0.47 nM | B4 |
| 0.59 nM | B5 |

Target: T1, mouse KLK7 (mKLK7)
Test: as above
Protocol: as §1

| Kd | Binder |
| --- | --- |
| 0.0107 nM | B9 |
| 0.017 nM | B10 |
| 1.62 nM | B17 |
| 0.0302 nM | B18 |
| 0.0354 nM | B11 |
| 0.0402 nM | B12 |
| 0.0144 nM | B19 |
| 4.86 nM | B20 |
| 0.0253 nM | B21 |
| 0.0357 nM | B22 |
| 0.0796 nM | B23 |
| 0.0101 nM | B24 |
| 0.018 nM | B25 |
| 0.125 nM | B14 |
| 0.217 nM | B15 |
| 0.0266 nM | B16 |
